# Results: article PMC2191977 (The Journal of Experimental Medicine, 1995)
# Numbering of substitutions follows the chain as printed.
# B1: CD28Ig (Fc fusion, mouse, UniProt P31041 20-150, looked up)
# chain: NKILVKQSPLLVVDSNEVSLSCRYSYNLLAKEFRASLYKGVNSDVEVCVGNGNFTYQPQFRSNAEFNCDGDFDNETVTFRLWNLHVNHTDIYFCKIEFMYPPPYLDNERSNGTIIHIKEKHLCHTQSSPKL
# Tests used:
# Assay in all cases: flow cytometry on cells
# murine B7 (wild type) = target: T1, murine B7 (wild type) (mouse, UniProt Q00609 38-306)
# T1 sequence (looked up): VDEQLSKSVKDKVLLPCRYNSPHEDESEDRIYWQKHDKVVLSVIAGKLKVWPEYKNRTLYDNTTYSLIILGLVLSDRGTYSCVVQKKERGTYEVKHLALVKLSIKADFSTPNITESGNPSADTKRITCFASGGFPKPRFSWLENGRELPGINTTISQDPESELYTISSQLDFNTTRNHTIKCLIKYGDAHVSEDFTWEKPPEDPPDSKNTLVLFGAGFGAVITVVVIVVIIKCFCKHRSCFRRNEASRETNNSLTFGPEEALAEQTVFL
# B7 E180D = target: T2, B7 E180D (mouse, UniProt Q00609 38-306, E180D)
# T2 sequence (looked up): T1 sequence (looked up) with E143D
# B7 L179V = target: T3, B7 L179V (mouse, UniProt Q00609 38-306, L179V)
# T3 sequence (looked up): T1 sequence (looked up) with L142V
# B7 S177A = target: T4, B7 S177A (mouse, UniProt Q00609 38-306, S177A)
# T4 sequence (looked up): T1 sequence (looked up) with S140A
# B7 E199A = target: T5, B7 E199A (mouse, UniProt Q00609 38-306, E199A)
# T5 sequence (looked up): T1 sequence (looked up) with E162A
# B7 L200A = target: T6, B7 L200A (mouse, UniProt Q00609 38-306, L200A)
# T6 sequence (looked up): T1 sequence (looked up) with L163A
binder,measurement,setting,value
B1,% wild-type B7 binding (normalised to anti-B7 mAb 10.16A.1),murine B7 (wild type),100%
same,% wild-type B7 binding (normalised to anti-B7 mAb 10.16A.1),B7 E180D,68%
same,"MF (mean fluorescence, control subtracted)",B7 E180D,38 MF
same,% wild-type B7 binding (normalised to anti-B7 mAb 10.16A.1),B7 L179V,18%
same,"MF (mean fluorescence, control subtracted)",B7 L179V,12 MF
same,% wild-type B7 binding (normalised to anti-B7 mAb 10.16A.1),B7 S177A,63%
same,"MF (mean fluorescence, control subtracted)",B7 S177A,40 MF
same,% wild-type B7 binding (normalised to anti-B7 mAb 10.16A.1),B7 E199A,31%
same,"MF (mean fluorescence, control subtracted)",B7 E199A,16 MF
same,% wild-type B7 binding (normalised to anti-B7 mAb 10.16A.1),B7 L200A,53%
same,"MF (mean fluorescence, control subtracted)",B7 L200A,28 MF
